Measured values taken from patent US6409648, “Polynucleotides encoding TRF1 binding proteins” (The Regents of the University of California).

T1: HA-Trf1 (Trf1 with a 10 aa hemagglutinin epitope at the N-terminus) (human, UniProt P54274 1-439)
T1 construct: In vitro translated (major 60 kD and minor about 40 kD products), or expressed in HT1080 cells
T1 sequence (looked up): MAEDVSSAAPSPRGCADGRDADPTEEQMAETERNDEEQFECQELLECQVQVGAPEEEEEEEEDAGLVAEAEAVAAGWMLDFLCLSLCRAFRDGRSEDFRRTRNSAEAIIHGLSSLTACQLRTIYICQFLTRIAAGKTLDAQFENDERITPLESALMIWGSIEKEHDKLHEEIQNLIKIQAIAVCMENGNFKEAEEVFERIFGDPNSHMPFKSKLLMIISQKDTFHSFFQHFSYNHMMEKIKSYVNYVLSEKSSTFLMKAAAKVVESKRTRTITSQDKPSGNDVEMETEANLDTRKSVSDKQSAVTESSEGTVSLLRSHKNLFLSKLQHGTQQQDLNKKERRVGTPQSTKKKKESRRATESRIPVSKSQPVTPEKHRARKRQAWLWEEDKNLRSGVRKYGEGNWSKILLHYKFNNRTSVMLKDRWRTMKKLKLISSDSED

B1: GST-Tin2 (wild-type Tin2 with glutathione-S-transferase linked to the N-terminus) (other)
chain: MATPLVAGPAALRFAAAASWQVVRGRCVEHFPRVLEFLRSLRAVAPGLVRYRHHERLCMGLKAKVVVELILQGRPWAQVLKALNHHFPESGPIVRDPKATKQDLRKILEAQETFYQQVKQLSEAPVDLASKLQELEQEYGEPFLAAMEKLLFEYLCQLEKALPTPQAQQLQDVLSWMQPGVSITSSLAWRQYGVDMGWLLPECSVTDSVNLAEPMEQNPPQQQRLALHNPLPKAKPGTHLPQGPSSRTHPEPLAGRHFNLAPLGRRRVQSQWASTRGGHKERPTVMLFPFRNLGSPTQVISNPESKEEHAIYTADLAMGTRAPSNGKYKGPYQTLGGRALKENPVDLPATEQKE
notes: also called Wild-type GST-Tin2; WT GST-Tin2; not shown: glutathione-S-transferase (GST) encoded by vector pGex4X-1 (Pharmacia), linked to the N-terminus; linker residues not gi
B2: Myc-Tin2 (Tin2 with a 13 aa c-Myc epitope at the N-terminus) (other, not shown: small tags and cut ends)
chain: B1 chain
notes: Made by in vitro translation (rabbit reticulocyte lysate, 35S-methionine) or expressed in HT1080 cells from a retrovirus
B3: GST-Tin2-12 (Tin2 with N-terminal deletion of aa 1-120, fused to GST) (other)
chain: LSEAPVDLASKLQELEQEYGEPFLAAMEKLLFEYLCQLEKALPTPQAQQLQDVLSWMQPGVSITSSLAWRQYGVDMGWLLPECSVTDSVNLAEPMEQNPPQQQRLALHNPLPKAKPGTHLPQGPSSRTHPEPLAGRHFNLAPLGRRRVQSQWASTRGGHKERPTVMLFPFRNLGSPTQVISNPESKEEHAIYTADLAMGTRAPSNGKYKGPYQTLGGRALKENPVDLPATEQKE
notes: not shown: GST carrier at the N end (vector pGex4X-1, Pharmacia) and its vector linker
B4: [TTAGGG]6 probes with flanks (6X-Tel 178 bp, Bi-6X-Tel 126 bp) (dsDNA)
DNA 1: TTAGGGTTAGGGTTAGGGTTAGGGTTAGGGTTAGGG
DNA 2: CCCTAACCCTAACCCTAACCCTAACCCTAACCCTAA
B5: GST-Tin2-15 (N-terminal fragment aa 1-196 of Tin2, fused to GST) (other)
chain: MATPLVAGPAALRFAAAASWQVVRGRCVEHFPRVLEFLRSLRAVAPGLVRYRHHERLCMGLKAKVVVELILQGRPWAQVLKALNHHFPESGPIVRDPKATKQDLRKILEAQETFYQQVKQLSEAPVDLASKLQELEQEYGEPFLAAMEKLLFEYLCQLEKALPTPQAQQLQDVLSWMQPGVSITSSLAWRQYGVDM
notes: not shown: glutathione-S-transferase (GST) encoded by vector pGex4X-1 (Pharmacia)
B6: [TTAGGG]13 double-stranded telomeric probe (dsDNA)
DNA 1: TTAGGGTTAGGGTTAGGGTTAGGGTTAGGGTTAGGGTTAGGGTTAGGGTTAGGGTTAGGGTTAGGGTTAGGGTTAGGG
DNA 2: CCCTAACCCTAACCCTAACCCTAACCCTAACCCTAACCCTAACCCTAACCCTAACCCTAACCCTAACCCTAACCCTAA
B7: GST-Tin2-14 (Tin2 with C-terminal deletion of aa 276-354, fused to GST) (other)
chain: MATPLVAGPAALRFAAAASWQVVRGRCVEHFPRVLEFLRSLRAVAPGLVRYRHHERLCMGLKAKVVVELILQGRPWAQVLKALNHHFPESGPIVRDPKATKQDLRKILEAQETFYQQVKQLSEAPVDLASKLQELEQEYGEPFLAAMEKLLFEYLCQLEKALPTPQAQQLQDVLSWMQPGVSITSSLAWRQYGVDMGWLLPECSVTDSVNLAEPMEQNPPQQQRLALHNPLPKAKPGTHLPQGPSSRTHPEPLAGRHFNLAPLGRRRVQSQWAST
notes: as for B3

Columns and labels:
[1] = target: B2; assay: co-immunoprecipitation with anti-GST of in vitro translated radiolabeled protein, SDS-PAGE
[2] = target: T1, HA-Trf1 (Trf1 with a 10 aa …); assay: EMSA with nuclear extract of HA-Trf1 expressing cells and telomeric DNA probe
[3] = target: T1, HA-Trf1 (Trf1 with a 10 aa …); assay: co-immunoprecipitation of mixed in vitro translation products, SDS-PAGE
[4] = target: T2, HA-tagged hTERT protein (human telomerase catalytic subunit) (human, UniProt O14746 1-1132); assay: co-immunoprecipitation from cells
T2 construct: Transiently expressed in Myc-Tin2-expressing cells; not shown: HA tag
T2 sequence (O14746 whole entry): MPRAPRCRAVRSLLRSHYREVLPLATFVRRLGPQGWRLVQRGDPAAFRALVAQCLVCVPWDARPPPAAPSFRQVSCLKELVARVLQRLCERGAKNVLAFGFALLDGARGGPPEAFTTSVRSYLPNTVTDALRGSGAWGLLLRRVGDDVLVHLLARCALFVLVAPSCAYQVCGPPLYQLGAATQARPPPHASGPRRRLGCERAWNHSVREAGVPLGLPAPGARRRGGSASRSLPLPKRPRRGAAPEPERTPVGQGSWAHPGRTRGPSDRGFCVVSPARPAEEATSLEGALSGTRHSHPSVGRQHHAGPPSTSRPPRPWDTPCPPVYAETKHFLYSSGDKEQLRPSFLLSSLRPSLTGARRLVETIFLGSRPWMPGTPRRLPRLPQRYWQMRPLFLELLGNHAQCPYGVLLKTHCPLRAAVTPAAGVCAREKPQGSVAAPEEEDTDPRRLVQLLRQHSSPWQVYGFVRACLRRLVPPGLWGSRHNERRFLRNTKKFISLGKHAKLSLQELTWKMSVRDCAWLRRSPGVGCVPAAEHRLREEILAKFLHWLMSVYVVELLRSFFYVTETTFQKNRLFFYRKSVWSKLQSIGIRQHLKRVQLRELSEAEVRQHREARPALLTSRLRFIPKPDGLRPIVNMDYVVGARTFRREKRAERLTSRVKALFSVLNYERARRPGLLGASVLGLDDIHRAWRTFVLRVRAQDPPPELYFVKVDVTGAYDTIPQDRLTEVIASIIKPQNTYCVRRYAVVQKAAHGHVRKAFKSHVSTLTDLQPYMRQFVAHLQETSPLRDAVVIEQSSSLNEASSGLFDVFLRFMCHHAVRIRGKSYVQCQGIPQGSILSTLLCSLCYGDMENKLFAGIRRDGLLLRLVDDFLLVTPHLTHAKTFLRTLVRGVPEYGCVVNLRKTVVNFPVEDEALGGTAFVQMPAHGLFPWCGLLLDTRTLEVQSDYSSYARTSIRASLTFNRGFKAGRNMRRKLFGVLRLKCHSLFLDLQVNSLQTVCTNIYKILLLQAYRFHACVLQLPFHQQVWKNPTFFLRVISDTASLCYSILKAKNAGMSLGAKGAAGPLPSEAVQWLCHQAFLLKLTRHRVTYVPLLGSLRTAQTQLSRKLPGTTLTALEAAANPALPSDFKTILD

[5] = target: T3, Trf1 (6his-Trf1) (human, UniProt P54274 P54274:1-439); assay: EMSA; TT plus minor TT**, TT*** and small amount of TT-AAX; Trf1 alone induces probe-probe pairing; details: tags: 6his, baculovirus/Sf9; chain copies: 2 (homodimer, stated); label: 32P (6X-Tel); 5' biotin (Bi-6X-Tel)
Protocol: (§1) 6his-Trf1 (150 ng) and increasing amounts of 6his-Tin2 were incubated with a double stranded TTAGGG_6 probe, and protein-DNA complexes were analyzed by EMSA. Probes containing [TTAGGG]_6 and flanking sequences were synthesized by PCR. 6X-Tel was 178 bp, and labeled with ^32P (*). Bi-6X-Tel was 126 bp, biotinylated at a 5' end, and either labeled (*) or unlabeled. The 6X-Tel probe was incubated with labeled or unlabeled Bi-6X-Tel probe, and 6his-Trf1 (150 ng), 6his-Tin2 (60 ng), GST (100 ng), GST-Tin2–13 (100 ng) and/or 100 fold excess unlabeled [TTAGGG]_7, followed by incubation with streptavidin-agarose beads. The beads were collected, and components released and analyzed by PAGE. Signals were quantified using a phosphorimager and ImageQuant. Reaction mixtures were analyzed by EMSA.
Under these optimized conditions, Trf1 alone formed a small amount of TT-AAX which was greatly stimulated by Tin2. Also under these conditions, Trf1 alone formed two minor complexes that are likely due to two (TT) and three (TT*) Trf1 homodimers loaded onto the probe (Bianchi et al., 1997). The Tin2–13 mutant supershifted all three TT complexes, as expected from its ability to bind Tfr1.

[6] = target: T4, Trf1 + Tin2 complex (human, UniProt P54274;Q9BSI4-2 P54274:1-439,Q9BSI4-2:1-354); assay: pulldown; probe pairing (6X-Tel/labeled Bi-6X-Tel) over Trf1 alone; 4-5 fold with unlabeled Bi-6X-Tel; abolished by excess unlabeled [TTAGGG]7; details: tags: 6his on both, baculovirus/Sf9; chain copies: 2 Trf1 + 2 Tin2 in TT-AA (stated as likely); label: 32P (6X-Tel); 5' biotin (Bi-6X-Tel)
Protocol: The 178 bp probe (6X-Tel) and the 126 bp probe (Bi-6X-Tel) were used either labeled or unlabeled. The probes were mixed together, incubated with purified 6his-proteins under optimized conditions, and Bi-6X-Tel probes were collected on streptavidin-agarose beads, as described below. […] Released labeled probes were identified by PAGE.
as §1
In the absence of protein or presence of Tin 2 alone, virtually no 6X-Tel probe, and very little labeled Bi-6X-Tel was released. […] Trf1 alone increased the amount of both 6X-Tel and labeled Bi-6X-Tel that were released. […]

[7] = target: T4, Trf1 + Tin2 complex; assay: EMSA; all TT shifted to TT-AAX; nuclear extract slightly enhances; details: tags: 6his on both, baculovirus/Sf9; chain copies: 2 Trf1 + 2 Tin2 in TT-AA (stated as likely)
Protocol: (§2) Nuclear extracts were prepared as described (Dimri et al., 1994), and dialyzed against 20 mM HEPES, pH 7.9, 100 mM KCl, 0.5 mM DTT, 0.5 mM PMSF. [TTAGGG]_6 and $[TTAGGG]13$ in pBluescript were excised, labeled using Klenow or PCR and gel purified. EMSA was performed as described (Zhong et al., 1992) in 20 ul containing 0–20 ug GST or GST-fusion proteins, 6–8 ug nuclear extract protein or 5 ul in vitro translation reaction, using a 30 min incubation at room temperature and 5% PAGE run with 1× Tris-borate-EDTA buffer.
(§3) To determine the nature of TT-AAX, DNA complexes formed by purified proteins were examined. 6his-tagged Trf1 and Tin2 were produced and purified from baculovirus-infected cells. […] Moreover, 6his-Tin2, added in increasing amounts to 6his-Trf1 and probe, shifted all the TT to TT-AAX . Since 6his-Tin2 formed more TT-AAX than GST-Tin2, the GST moiety may reduce TT-AAX formation or stability. Nuclear extract had only a small effect on TT-AAX formation. […] Addition of 6his-Trf1 produced TT, and 6his-Tin2 shifted all the TT to TT-AAX. However, somewhat more TT-AAX was formed in the presence of nuclear extract than its absence. Thus, TT-AAX required only Trf1, Tin2 and telomeric DNA, but other nuclear proteins might enhance its formation or stability.

[8] = target: T3, Trf1 (6his-Trf1); assay: EMSA; single TT complex; probe not restated, taken as [TTAGGG]13; details: tags: 6his, baculovirus/Sf9; chain copies: 2 (homodimer, stated)
Protocol: as §2, §3

[9] = target: Trf1 (HA-Trf1, in vitro translated) (human, UniProt P54274 P54274:1-439); assay: EMSA; specific protein-DNA complex TT
Protocol: as §2
This was true whether Tin2 was translated in vitro, purified from *E. coli* as a GST-fusion protein, or purified from baculovirus infected insect cells as a 6-histidine (6his)-tagged protein. […] In contrast, Trf1, whether translated in vitro or in nuclear extracts from HA-Trf1 overexpressing cells, formed a specific protein-DNA complex (Chong et al., 1995). Since Trf1 binds DNA as a homodimer (Bianchi et al., 1997), this complex was designated TT. To determine whether Tin2 interacts with this complex, WT or mutant GST-Tin2 proteins were added to nuclear extracts from HA-Trf1 expressing cells.

Binder: B1
- binding result [1]: no binding
- binding result [2]: binds

Binder: B2
- binding result [3]: binds
- binding result [4]: no binding

Binder: B3
- binding result [2]: binds

Binder: B4
- binding result [5]: binds
- binding result [6]: binds

Binder: B5
- binding result [2]: no binding

Binder: B6
- binding result [7]: binds
- binding result [8]: binds
- binding result [9]: binds

Binder: B7
- binding result [2]: binds
